Biological target: the molecule itself
Test: native gel or EMSA; native PAGE, 4%-13% acrylamide gradient gel, sample buffer with 1% deoxycholate, silver staining; purified P2X4R

B1: rat P2X4 receptor (receptor, UniProt P51577 1-388, looked up)
chain: MAGCCSVLGSFLFEYDTPRIVLIRSRKVGLMNRAVQLLILAYVIGWVFVWEKGYQETDSVVSSVTTKAKGVAVTNTSQLGFRIWDVADYVIPAQEENSLFIMTNMIVTVNQTQSTCPEIPDKTSICNSDADCTPGSVDTHSSGVATGRCVPFNESVKTCEVAAWCPVENDVGVPTPAFLKAAENFTLLVKNNIWYPKFNFSKRNILPNITTSYLKSCIYNAQTDPFCPIFRLGTIVEDAGHSFQEMAVEGGIMGIQIKWDCNLDRAASLCLPRYSFRRLDTRDLEHNVSPGYNFRFAKYYRDLAGKEQRTLTKAYGIRFDIIVFGKAGKFDIIPTMINVGSGLALLGVATVLCDVIVLYCMKKKYYYRDKKYKYVEDYEQGLSGEMNQ
notes: P2X4 receptor (P2X purinoceptor 4), rat; cDNA encoding rat P2X4R subcloned into pcDNA3.1; Homotrimer by native PAGE (about 150 kDa; monomer about 50 kDa in SDS-PAGE) and by AFM; No tag is mentioned; 1321N1 cells are said not to express P2XRs of their own; also called P2X4Rs; source: human 1321N1 astrocytoma cells, stably transfected (pcDNA3.1)
stoichiometry N: 3

Reference: article PMC2675908, “Direct Observation of ATP-Induced Conformational Changes in Single P2X4 Receptors” (PLOS Biology, 2009)
